{
  "source": "patent US12594347B2",
  "about": "“Nanoparticulate drug delivery systems” (Duke University, priority 2018, dated 2026)",
  "key": {"[1]": {"test": "Dynamic and static light scattering", "assay_type": "physicochemical", "conditions": "for Rh / Nagg / Rg: PBS; for Nagg / Rg: SLS", "description": "Light Scattering. Dynamic and static light scattering measurements were performed using an ALV/CGS-3 goniometer system (Germany). […] To study the effect of albumin binding on micellar self-assembly, mouse albumin was added to the samples at 1:1 albumin-CP molar ratio in PBS. Measurements were obtained at 25° C. and 37° C. for angles between 30-150° at 5° increments with each angle consisting of 3 runs and 10 s each at each run. Hydrodynamic radius (Rh) was determined by dynamic light scattering. The radius of gyration (Rg) and the average molecular weight of the particle (MW) were calculated from the slope and intercept of a partial Zimm plot, respectively, using ALV/Dynamic and Static FIT and PLOT software and according. The micelle aggregation number Nagg, or the number of polypeptide chains per nanoparticle, was calculated by dividing the micelle molecular weight by the molecular weight of the polypeptide monomer.\nSize and morphology of CP conjugated micelles. The radius and the aggregation number of the self-assembled micelles were determined, in the presence and absence of albumin, by dynamic and static light scattering at 37° C. using an ALV/CGS-3 goniometer system (Germany). Freeze fracture electron microscopy was performed to visualize the micelles and estimate their radius and morphology."}, "[2]": {"test": "pH dependent drug release", "description": "pH dependent drug release. […] Samples were incubated at 37° C. for 0.0, 0.25, […], 0.5, 1, 2, 4, 6, or 24 hr and were neutralized by addition of pH 7.4 (0.1 M NaH2PO4). […] Eluting peaks were detected with a UV-Visible detector set at 490 nm. […] HPLC data was quantified by integrating the area under the peak corresponding to the free drug. […] For pH 5.0 samples, data points were fit by nonlinear regression to a first order release model: F %, released=a[1−exp(−ln(2) t/t1/2)] (1) where t is the time (hrs) after incubation, t1/2 is the half-life (hrs) of release, and a (%) is the maximum extent of drug release."}, "[3]": {"system": "C26 murine colon adenocarcinoma cells", "method": "C26 murine colon adenocarcinoma cells were seeded (5000 cells/well) in a 96-well plate. After 24 h, cells were treated in triplicate with 3-fold serial dilutions of drugs beginning with 100 uM. After 72 h incubation, 20 μL of CellTiter 96 AQueous™ (Promega; Madison, WI) 3-(4,5-dimethlthiazol-2-yl)-5-(3-carboxymethoxphenyl)-2-(4-sulfophenyl)-2H-tetrazolium (MTS) reagent was added to each well followed by 3 h incubation at 37° C. The absorbance at 490 nm was determined using a Victor3™ microplate reader (Perkin Elmer; Waltham, MA). For each plate, blank wells (with no cells) were defined as 0% viability and wells treated with PBS were defined as 100% viability. The background absorbance at 490 nm was corrected by subtracting the average absorbance of the blank wells from each well. The percent viability was defined as the absorbance of each well normalized to the absorbance of wells treated with PBS. Inhibitory concentration (IC 50) values were calculated using a four-parameter logistic fit in the Prism program (GraphPad Software, San Diego, CA, USA)."}},
  "note": "Values joined by “and” are separate entries in the source; they are usually repeats but may differ in a detail not shown here. Equal values may be shown once.",
  "data": [
    {"molecule": "ABDN-CP-DOX (conjugate) LAEAKVLANRELDKYGVSDYYKNLINNAKTVEGVKALIDEILAALPVPGAGVPGAGVPGAGVPGAGVPGAGVPGAGVPGAGVPGAGVPGAGVPGAGVPGAGVPGAGVPGAGVPGAGVPGAGVPGAGVPGAGVPGAGVPGAGVPGAGVPGAGVPGAGVPGAGVPGAGVPGAGVPGAGVPGAGVPGAGVPGAGVPGAGVPGAGVPGAGVPGAGVPGAGVPGAGVPGAGVPGAGVPGAGVPGAGVPGAGVPGAGVPGAGVPGAGVPGAGVPGAGVPGAGVPGAGVPGAGVPGAGVPGAGVPGAGVPGAGVPGAGVPGAGVPGAGVPGAGVPGAGVPGAGVPGAGVPGAGVPGAGVPGAGVPGAGVPGAGVPGAGVPGAGVPGAGVPGAGVPGAGVPGAGVPGAGVPGAGVPGAGVPGAGVPGAGVPGAGVPGAGVPGAGVPGAGVPGAGVPGAGVPGAGVPGAGVPGAGVPGAGVPGAGVPGAGVPGAGVPGAGVPGAGVPGAGVPGAGVPGAGVPGAGVPGAGVPGAGVPGAGVPGAGVPGAGVPGAGVPGAGVPGAGVPGAGVPGAGVPGAGVPGAGVPGAGVPGAGVPGAGVPGAGVPGAGVPGAGVPGAGVPGAGVPGAGVPGAGVPGAGVPGAGVPGAGVPGAGVPGAGVPGAGVPGAGVPGAGVPGAGVPGAGVPGAGVPGAGVPGAGVPGAGVPGAGVPGAGVPGAGVPGAGVPGAGVPGAGVPGAGVPGAGVPGAGVPGAGVPGAGVPGAGVPGAGCGGCGGCGGCGGCGGCGGCGGCGG", "values": [
      {"measurement": "ρ = Rg/Rh", "setting": "[1]; 22 ° C.", "result": 0.62},
      {"measurement": "Rh", "setting": "[1]; 22 ° C., DLS", "result": "59.0 nm and 59.00 nm"},
      {"measurement": "Nagg", "setting": "[1]; 22 ° C.", "result": 34.97},
      {"measurement": "Rg", "setting": "[1]; 22 ° C.", "result": 36.95, "unit": "nm"},
      {"measurement": "ρ = Rg/Rh", "setting": "[1]; 37 ° C.", "result": 0.766},
      {"measurement": "Rh", "setting": "[1]; 37 ° C., DLS", "result": 45.63, "unit": "nm"},
      {"measurement": "Nagg", "setting": "[1]; 37 ° C.", "result": 42.04},
      {"measurement": "Rg", "setting": "[1]; 37 ° C.", "result": 34.97, "unit": "nm"},
      {"measurement": "nanoparticle formation (in words)", "setting": "[1]; DLS", "result": "form nanoparticles"},
      {"measurement": "aggregation (in words)", "setting": "[1]; body temperature (37° C.)", "result": "remain aggregate-free"},
      {"measurement": "aggregation (in words)", "setting": "[1]; room temperature (25° C.)", "result": "Neither ABDN-CP-DOX nor ABDH-CP-DOX conjugates aggregate"},
      {"measurement": "in vitro drug release (in words)", "setting": "[2]; acidic conditions, pH 5.0, 37° C.", "result": "released the loaded DOX"},
      {"measurement": "in vitro drug release / stability (in words)", "setting": "[2]; pH 7.4, 37° C.", "result": "remained stable"},
      {"measurement": "IC50", "setting": "[3]", "result": 310, "unit": "nM"}
    ]}
  ]
}
